Paper PMC3939493, “Structure of the SAS-6 cartwheel hub from Leishmania major” (eLife, 2014)

Key:
SAS-6 [1] = target: T1, SAS-6 (Danio rerio, UniProt Q7ZVT3, F131D); experiment: SEC-MALS of purified protein with […] PK9119 (oligomerization reduced, less than for L. major); format: biochemical
T1 construct: gene sass6; Dr SAS-6^1–326
T1 sequence (Q7ZVT3 1-326 F131D): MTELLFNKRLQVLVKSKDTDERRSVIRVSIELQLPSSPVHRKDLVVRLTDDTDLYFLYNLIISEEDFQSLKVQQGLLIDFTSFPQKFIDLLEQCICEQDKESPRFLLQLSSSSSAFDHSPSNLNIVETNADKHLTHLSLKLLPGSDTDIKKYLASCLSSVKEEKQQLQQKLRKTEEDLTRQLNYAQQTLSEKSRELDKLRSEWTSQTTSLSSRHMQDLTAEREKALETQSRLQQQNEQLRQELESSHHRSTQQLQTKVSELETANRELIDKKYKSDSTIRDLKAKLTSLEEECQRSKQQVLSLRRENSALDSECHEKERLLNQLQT

SAS-6 [2] = target: T2, SAS-6 (Leishmania major, UniProt E9AFQ5); experiment: SEC-MALS of purified protein with […] PK9119 (oligomerization reduced); format: biochemical
T2 construct: gene LMJF_35_4280; SAS-6^97–424
T2 sequence (E9AFQ5 97-424): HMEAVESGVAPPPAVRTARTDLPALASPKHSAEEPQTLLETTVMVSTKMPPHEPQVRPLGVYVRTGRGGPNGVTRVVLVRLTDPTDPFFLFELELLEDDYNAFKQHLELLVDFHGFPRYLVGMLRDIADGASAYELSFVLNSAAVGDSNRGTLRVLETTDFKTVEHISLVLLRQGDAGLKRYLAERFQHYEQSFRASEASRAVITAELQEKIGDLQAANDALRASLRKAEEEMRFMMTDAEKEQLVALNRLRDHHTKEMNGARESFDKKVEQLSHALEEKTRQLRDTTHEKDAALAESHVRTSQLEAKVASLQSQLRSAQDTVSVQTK

[3] = target: L. major SAS-6^97–274 Y215K mutant (Leishmania major); experiment: AUC; sedimentation equilibrium; 100, 200 and 400 µM protein; 11300, 17000 and 21200 rpm; 4°C; 50 mM Tris, 100 mM NaCl, pH 8.0; monomer-dimer equilibrium model (dimer to monomers)
[4] = target: L. major SAS-6^97–274 wild-type (Leishmania major); experiment: as above
[5] = target: L. major SAS-6^97–320 F257E (Leishmania major); experiment: crystal structure; L. major SAS-6^97–320 F257E, sitting drop, 100 mM NaCitrate pH 5.85, 21% PEG-3000, 16°C; 94.7 mg/ml protein; 2.9 Å; four molecules in the asymmetric unit
[6] = target: L. major SAS-6^97–424 F257E mutant (Leishmania major); experiment: SEC-MALS; Superdex S-200 10/300, 50 mM bisTris, 100 mM NaCl, pH 7.0, 0.126% DMSO, with or without 1 mM PK9119; L. major constructs injected at 25 mg/ml (675 µM monomer), zebrafish constructs at 10 mg/ml (263 µM monomer); peak concentrations about 10-fold lower
[7] = target: L. major SAS-6^97–424 wild-type (Leishmania major); experiment: as above
[8] = target: the molecule itself; experiment: as above

**Q.** With CCc1cc(Br)cc2c(CN(C)C)c[nH]c12 [PK9119, (5-bromo-7-ethyl-1H-indol-3-ylmethyl)-dimethyl-amine] as the molecule, how does the “SEC-MALS of purified protein with 1 mM PK9119 (oligomerization reduced, less tha)” value (SAS-6 [1]) read?
**A.** zebrafish SAS-6 oligomerization was also affected by the presence of PK9119, although to a lesser extent

**Q.** What about the “SEC-MALS of purified protein with 1 mM PK9119 (oligomerization reduced)” value (SAS-6 [2]) of the same molecule?
**A.** a decrease in the analysed mass from MALS, demonstrating that PK9119 partially affects head-to-head dimerization

**Q.** For “L. major SAS-6^97–274 Y215K mutant (domain or fragment)”, which Kd [3] is on record?
**A.** 190 µM

**Q.** “L. major SAS-6^97–274 wild-type (domain or fragment)” was tested. Which Kd [4] did it give?
**A.** 622 µM

**Q.** How did the stoichiometry N [5] turn out when “L. major SAS-6^97–320 F257E (domain or fragment)” was run?
**A.** 8

**Q.** How did the stoichiometry N [6] turn out when “L. major SAS-6^97–424 F257E mutant (domain or fragment)” was run?
**A.** 2

**Q.** With “L. major SAS-6^97–424 wild-type (domain or fragment)” as the molecule, how does the stoichiometry N [7] read?
**A.** 6

B1: Danio rerio SAS-6^1–326 F131D mutant (domain or fragment)
chain: GPHMTELLFNKRLQVLVKSKDTDERRSVIRVSIELQLPSSPVHRKDLVVRLTDDTDLYFLYNLIISEEDFQSLKVQQGLLIDFTSFPQKFIDLLEQCICEQDKESPRFLLQLSSSSSAFDHSPSNLNIVETNADKHLTHLSLKLLPGSDTDIKKYLASCLSSVKEEKQQLQQKLRKTEEDLTRQLNYAQQTLSEKSRELDKLRSEWTSQTTSLSSRHMQDLTAEREKALETQSRLQQQNEQLRQELESSHHRSTQQLQTKVSELETANRELIDKKYKSDSTIRDLKAKLTSLEEECQRSKQQVLSLRRENSALDSECHEKERLLNQLQT
notes: Dimer by SEC-MALS; source: E. coli BL21 Rosetta, purified (NiNTA, proteolytic tag cleavage, SEC, ion exchange); not shown: His tag, N-terminal, cleaved
**Q.** B1 was tested. Which “stoichiometry N” value [8] did it give?
**A.** 2

B2: Danio rerio SAS-6^1–326 wild-type (domain or fragment)
chain: GPHMTELLFNKRLQVLVKSKDTDERRSVIRVSIELQLPSSPVHRKDLVVRLTDDTDLYFLYNLIISEEDFQSLKVQQGLLIDFTSFPQKFIDLLEQCICEQDKESPRFLLQLSSSSSAFDHSPSNLNIVETNAFKHLTHLSLKLLPGSDTDIKKYLASCLSSVKEEKQQLQQKLRKTEEDLTRQLNYAQQTLSEKSRELDKLRSEWTSQTTSLSSRHMQDLTAEREKALETQSRLQQQNEQLRQELESSHHRSTQQLQTKVSELETANRELIDKKYKSDSTIRDLKAKLTSLEEECQRSKQQVLSLRRENSALDSECHEKERLLNQLQT
notes: also called zebrafish SAS-6; source: E. coli BL21 Rosetta, purified (NiNTA, proteolytic tag cleavage, SEC, ion exchange); not shown: His tag, N-terminal, cleaved
**Q.** Does B2 bind [8]?
**A.** binds
